We go through 2 molecules from patent US20220411511A1 (STCUBE, published 2022).

A word on the Kd: it is the equilibrium constant for the complex coming apart. In general, koff refers to the rate constant with which the complex falls apart. A high value points to fast dissociation. Usually kon stands for a measure of how fast the partners come together. As a reminder, the EC50 is the concentration at which the effect is half-maximal. A higher EC50 goes with weaker potency.

The target of test [1] is T1, CTLA-4-His (human, UniProt P16410 36-161, limits assumed, N-linked glycosylation at N113 and N145 (heavily glycosylated)).
T1 construct: also called antigen CTLA-4-His; not shown: His tag
T1 sequence: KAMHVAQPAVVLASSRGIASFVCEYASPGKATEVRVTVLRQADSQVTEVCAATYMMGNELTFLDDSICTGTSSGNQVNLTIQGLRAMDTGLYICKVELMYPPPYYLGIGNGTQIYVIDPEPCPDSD
Nature of the test: Octet BLI, antibody loaded on sensor, 1:1 fit. The method, then: KD determination and binning by Octet. […] Baseline was established in PBS containing 1 mg/ml bovine serum albumin (assay buffer), the association step was performed by submerging the sensors in a single concentration of analyte in assay buffer. Dissociation was performed and monitored in fresh assay buffer. All experiments were performed with sensor shaking at 1,000 rpm. ForteBio's data analysis software was used to fit the data to a 1:1 binding model to extract an association rate and dissociation rate. The KD was calculated using the ratio kd/kₐ. In a typical epitope binning assay, antigen CTLA-4-His (10 nM) was preincubated with the second antibody (10 nM) for 1 h at room temperature. Control antibody (20 nM) was loaded onto AMC sensors (ForteBio) and remaining Fc-binding sites on the sensor were blocked with a whole mouse IgG antibody (Jackson ImmunoResearch). The sensors were exposed to preinculated antigen-second antibody mixture. Raw data was processed using ForteBio's Data Analysis Software 7.0 and the antibody pairs were assessed for competitive binding.
The baseline was established in PBS containing 1 mg/mL bovine serum albumin (assay buffer), and the association step was performed by submerging the sensors in a single concentration of analyte in assay buffer. Dissociation was performed and monitored in fresh assay buffer. All experiments were performed with the sensor shaking at 1,000 rotations per minute. ForteBio (Menlo Park, Calif., USA) data analysis software was used to fit the data to a 1:1 binding model to extract an association rate and dissociation rate. KD was calculated using the ratio kd:ka.

Test [2] concerns the target T2, CTLA-4 N113Q mutant expressed in 293T cells (human, UniProt P16410 36-223).
T2 construct: Flag-tagged; single-glycosylated (only N145 can carry a glycan); Tested by Western blot
The experiment in a line: blot under native condition of 293T cells expressing flag-tagged CTLA-4.

Test [3] deals with T3, CTLA-4 N145Q mutant expressed in 293T cells (human, UniProt P16410 36-223).
T3 construct: Flag-tagged; single-glycosylated (only N113 can carry a glycan); Tested by Western blot
The test is described as above.

Test [4] deals with T4, CTLA-4 2NQ (non-glycosylated form) expressed in 293T cells (human, UniProt P16410 36-223).
T4 construct: also called CTLA-4 2NQ mutant; unglycosylated CTLA-4
Described as above.

The target in test [5] is T5, CTLA-4 WT expressed on 293T cells (human, UniProt P16410 36-223, N-linked glycosylation at N113 and N145).
T5 construct: also called wild type CTLA-4; Flag-tagged CTLA-4 WT
T5 sequence: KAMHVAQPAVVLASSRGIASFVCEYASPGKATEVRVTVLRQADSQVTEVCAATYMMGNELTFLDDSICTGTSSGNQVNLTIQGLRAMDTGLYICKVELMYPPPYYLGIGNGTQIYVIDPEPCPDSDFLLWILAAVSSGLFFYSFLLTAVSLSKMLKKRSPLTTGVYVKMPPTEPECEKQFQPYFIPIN
The experiment in a line: IncuCyte, inhibition of CD86-Fc binding to 293T cells expressing CTLA-4. The method, then:
(§1) The green fluorescent signals were measured every 2 hours and quantified using an IncuCyte Zoom system (Essen BioScience).

Test [6] concerns the target T1, CTLA-4-His. The experiment in a line: Biacore X100 SPR, antibody captured on CM5 chip, six concentrations of CTLA4, 1:1 fit. The method, then: KD determination was performed via surface plasmon resonance using a Biacore X100 instrument (GE Healthcare, Uppsala, Sweden). […] was immobilized on a research-grade CM5 chip using standard procedures, and antibody was flowed over the chip at 2 μg/mL in HBS-EP⁺ buffer. Next, six concentrations of CTLA4, each a 2-fold dilution, were passed over the chip. Sensorgram data were analyzed by Biacore X100 evaluation software version 2.0.1 with 1:1 binding kinetics.
On the technique in general: In SPR one partner is held on a chip, and binding of the other changes the refractive index at the surface.

For test [7], the target named is T5, CTLA-4 WT expressed on 293T cells. Nature of the test: IncuCyte, inhibition of CD86-Fc binding to CTLA-4-expressing cells; human chimera hSTC1807 (FIG. 8B), not the mouse STC1807 of FIG. 7B (2.189 µg/mL). The method, then:
as §1

B1: anti-glycCTLA-4 monoclonal antibody STC1807 (antibody, V domains shown)
VH: EVQLQQSGAELVRPGALVKLSCKASGFNIKDYYMNWVKQRPEQGLEWIGWIDPENGNTIYDPKFQGKASIIADTSSNTAYLQLSSLTSEDTAVYYCARKWSYTMDYWGQGTSVTVSS
VL: QIVLTQSPALMSASPGEKVTMTCSASSFVGYMYWYQQKPRSSPKPWIYLTSNLASGVPGRFSGSGSGTSYSLTISNMEAEDAATYYCQQWSSNPLTFGAGTKLELK
notes: Mouse hybridoma monoclonal antibody (BALB/c), kappa light chain; also called MAb STC1807
Turning to B1, the values for the dissociation constant (Kd) in test [1] and in test [6] were 1.86 nM and 0.469 nM, respectively. Besides, the figures for the dissociation rate constant (koff) in test [1] and in test [6] were 0.000499 s⁻¹ and 0.000217 s⁻¹, respectively. Moreover, the on-rate (kon) in test [1] came out at 268000 M⁻¹ s⁻¹; in test [6], 463000 M⁻¹ s⁻¹. The values for the binding result in test [2], in test [3] and in test [4] were “no binding”, “binds” and “no binding”, respectively. Moreover, it took 2.19 µg/mL to reach a half-maximal effect in test [5] (EC50).

B2: human chimera of STC1807 (hSTC1807) (antibody, V domains shown)
VH: B1 VH
VL: QIVLTQSPALMSASPGEKVTMTCSASSFVGYMYWYQQKPRSSPKPWIYLTSNLASGVPGRFSGSGSGTSYSLTISNMEAEDAATYYCQQWSSNPLTFGAGTKLELKR
notes: domain: kappa constant region of pFUSEss-CLIg-hK; Mouse constant regions replaced by human ones; also called human chimera STC1807; chimeric antibody (hSTC1807); not shown: human IgG1 constant region (CH1-CH3) from vector pFUSEss-CHIg-hG1 (Invivogen)
B2 came in with an EC50 in test [7] of 0.331 µg/mL.
